From patent publication US9993529B2, “Stable formulations of a hyaluronan-degrading enzyme” (Halozyme, Inc., priority 2011, dated 2018)

Experiment: RP-HPLC insulin apparent solubility / percent recovery (content)
Conditions: for Solubility of Lispro: 7 days at 2-8° C.
Method: Apparent solubility was measured as the percent insulin recovery as compared to the initial formulations/conditions.
Samples were prepared by withdrawing 100 μL from each vial at every time point and centrifuging prior to loading. Samples were stored in an autosampler at 4° C. prior to use, and were considered stable for 3 days after preparation. All samples were tested in duplicate.
For insulin, 20 μL was injected for each HPLC run.
To determine the apparent solubility, the peak area of insulin/insulin analog main peak and desamido peak were integrated and combined together to calculate the percentage relative to the standards. […] The data were processed using Design-Expert® 7.0 (StatEase) and the “historical data” feature. Insulin percent purity was expressed as the percent of main insulin versus all insulin species.

## insulin Lispro: LysB28, ProB29 human insulin analog
0.2% methylparaben + […] m-cresol, pH 6.6, NaCl 50 mM
  Solubility of Lispro: 42.0%
0.2% methylparaben + […] m-cresol, pH 6.6, NaCl 80 mM
  Solubility of Lispro: 28.2%
0.2% methylparaben + […] m-cresol, pH 6.6, NaCl 110 mM
  Solubility of Lispro: 24.1%
0.2% methylparaben + […] m-cresol, pH 6.6, NaCl 140 mM
  Solubility of Lispro: 25.9%
0.2% methylparaben + […] m-cresol, pH 6.8, NaCl 50 mM
  Solubility of Lispro: 82.3%
0.2% methylparaben + […] m-cresol, pH 6.8, NaCl 80 mM
  Solubility of Lispro: 62.6%
0.2% methylparaben + […] m-cresol, pH 6.8, NaCl 110 mM
  Solubility of Lispro: 47.8%
0.2% methylparaben + […] m-cresol, pH 6.8, NaCl 140 mM
  Solubility of Lispro: 42.0%
0.2% methylparaben + […] m-cresol, pH 7.0, NaCl 50 mM
  Solubility of Lispro: 95.3%
0.2% methylparaben + […] m-cresol, pH 7.0, NaCl 80 mM
  Solubility of Lispro: 98.1%
0.2% methylparaben + […] m-cresol, pH 7.0, NaCl 110 mM
  Solubility of Lispro: 94.1%
0.2% methylparaben + […] m-cresol, pH 7.0, NaCl 140 mM
  Solubility of Lispro: 65.6%
0.2% methylparaben + […] m-cresol, pH 7.2, NaCl 50 mM
  Solubility of Lispro: 95.7%
0.2% methylparaben + […] m-cresol, pH 7.2, NaCl 80 mM
  Solubility of Lispro: 97.9%
0.2% methylparaben + […] m-cresol, pH 7.2, NaCl 110 mM
  Solubility of Lispro: 99.6%
0.2% methylparaben + […] m-cresol, pH 7.2, NaCl 140 mM
  Solubility of Lispro: 98.0%
0.2% methylparaben + […] m-cresol, pH 7.4, NaCl 50 mM
  Solubility of Lispro: 95.6%
0.2% methylparaben + […] m-cresol, pH 7.4, NaCl 80 mM
  Solubility of Lispro: 98.2%
0.2% methylparaben + […] m-cresol, pH 7.4, NaCl 110 mM
  Solubility of Lispro: 99.9%
0.2% methylparaben + […] m-cresol, pH 7.4, NaCl 140 mM
  Solubility of Lispro: 98.5%
0.2% methylparaben + […] m-cresol, pH 7.6, NaCl 50 mM
  Solubility of Lispro: 95.7%
0.2% methylparaben + […] m-cresol, pH 7.6, NaCl 80 mM
  Solubility of Lispro: 98.3%
0.2% methylparaben + […] m-cresol, pH 7.6, NaCl 110 mM
  Solubility of Lispro: 100.2%
0.2% methylparaben + […] m-cresol, pH 7.6, NaCl 140 mM
  Solubility of Lispro: 98.8%
0.2% phenol + […] m-cresol, pH 6.6, NaCl 50 mM
  Solubility of Lispro: 52.8%
0.2% phenol + […] m-cresol, pH 6.6, NaCl 80 mM
  Solubility of Lispro: 32.8%
0.2% phenol + […] m-cresol, pH 6.6, NaCl 110 mM
  Solubility of Lispro: 26.0%
0.2% phenol + […] m-cresol, pH 6.8, NaCl 50 mM
  Solubility of Lispro: 91.4%
0.2% phenol + […] m-cresol, pH 6.8, NaCl 80 mM
  Solubility of Lispro: 65.1%
0.2% phenol + […] m-cresol, pH 6.8, NaCl 110 mM
  Solubility of Lispro: 44.9%
0.2% phenol + […] m-cresol, pH 6.8, NaCl 140 mM
  Solubility of Lispro: 40.4%
0.2% phenol + […] m-cresol, pH 7.0, NaCl 50 mM
  Solubility of Lispro: 97.4%
0.2% phenol + […] m-cresol, pH 7.0, NaCl 80 mM
  Solubility of Lispro: 95.5%
0.2% phenol + […] m-cresol, pH 7.0, NaCl 110 mM
  Solubility of Lispro: 75.2%
0.2% phenol + […] m-cresol, pH 7.0, NaCl 140 mM
  Solubility of Lispro: 65.3%
0.2% phenol + […] m-cresol, pH 7.2, NaCl 50 mM
  Solubility of Lispro: 97.6%
0.2% phenol + […] m-cresol, pH 7.2, NaCl 80 mM
  Solubility of Lispro: 97.4%
0.2% phenol + […] m-cresol, pH 7.2, NaCl 110 mM
  Solubility of Lispro: 95.2%
0.2% phenol + […] m-cresol, pH 7.2, NaCl 140 mM
  Solubility of Lispro: 90.8%
0.2% phenol + […] m-cresol, pH 7.4, NaCl 50 mM
  Solubility of Lispro: 97.7%
0.2% phenol + […] m-cresol, pH 7.4, NaCl 80 mM
  Solubility of Lispro: 97.6%
0.2% phenol + […] m-cresol, pH 7.4, NaCl 110 mM
  Solubility of Lispro: 97.0%
0.2% phenol + […] m-cresol, pH 7.4, NaCl 140 mM
  Solubility of Lispro: 96.9%
0.2% phenol + […] m-cresol, pH 7.6, NaCl 50 mM
  Solubility of Lispro: 97.5%
0.2% phenol + […] m-cresol, pH 7.6, NaCl 80 mM
  Solubility of Lispro: 97.7%
0.2% phenol + […] m-cresol, pH 7.6, NaCl 110 mM
  Solubility of Lispro: 97.3%
0.2% phenol + […] m-cresol, pH 7.6, NaCl 140 mM
  Solubility of Lispro: 96.8%
2-8° C., pH 7.0, after 1 week at 80, 110 or 140 mM NaCl
  Solubility (% of 120 U/mL): below 65%
[…] phenol + […] m-cresol, pH 6.6, NaCl 50 mM
  Solubility of Lispro: 60.3%
[…] phenol + […] m-cresol, pH 6.6, NaCl 80 mM
  Solubility of Lispro: 43.3%
[…] phenol + […] m-cresol, pH 6.6, NaCl 110 mM
  Solubility of Lispro: 24.2%
[…] phenol + […] m-cresol, pH 6.6, NaCl 140 mM
  Solubility of Lispro: 27.7%
[…] phenol + […] m-cresol, pH 6.8, NaCl 50 mM
  Solubility of Lispro: 93.6%
[…] phenol + […] m-cresol, pH 6.8, NaCl 80 mM
  Solubility of Lispro: 60.8%
[…] phenol + […] m-cresol, pH 6.8, NaCl 110 mM
  Solubility of Lispro: 44.9%
[…] phenol + […] m-cresol, pH 6.8, NaCl 140 mM
  Solubility of Lispro: 35.9%
[…] phenol + […] m-cresol, pH 7.0, NaCl 50 mM
  Solubility of Lispro: 98.7%
[…] phenol + […] m-cresol, pH 7.0, NaCl 80 mM
  Solubility of Lispro: 96.4%
[…] phenol + […] m-cresol, pH 7.0, NaCl 110 mM
  Solubility of Lispro: 77.0%
[…] phenol + […] m-cresol, pH 7.0, NaCl 140 mM
  Solubility of Lispro: 61.2%
[…] phenol + […] m-cresol, pH 7.2, NaCl 50 mM
  Solubility of Lispro: 100.5%
[…] phenol + […] m-cresol, pH 7.2, NaCl 80 mM
  Solubility of Lispro: 99.2%
[…] phenol + […] m-cresol, pH 7.2, NaCl 110 mM
  Solubility of Lispro: 97.3%
[…] phenol + […] m-cresol, pH 7.2, NaCl 140 mM
  Solubility of Lispro: 93.1%
[…] phenol + […] m-cresol, pH 7.4, NaCl 50 mM
  Solubility of Lispro: 100.8%
[…] phenol + […] m-cresol, pH 7.4, NaCl 80 mM
  Solubility of Lispro: 101.8%
[…] phenol + […] m-cresol, pH 7.4, NaCl 110 mM
  Solubility of Lispro: 100.7%
[…] phenol + […] m-cresol, pH 7.4, NaCl 140 mM
  Solubility of Lispro: 98.4%
[…] phenol + […] m-cresol, pH 7.6, NaCl 50 mM
  Solubility of Lispro: 100.9%
[…] phenol + […] m-cresol, pH 7.6, NaCl 80 mM
  Solubility of Lispro: 102.1%
[…] phenol + […] m-cresol, pH 7.6, NaCl 110 mM
  Solubility of Lispro: 101.6%
[…] phenol + […] m-cresol, pH 7.6, NaCl 140 mM
  Solubility of Lispro: 101.3%
